The NTF2 design screens of Basanta et al. (2020)

Assay: protease stability score; higher = more stable; yeast display proteolysis, trypsin and chymotrypsin;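 further: log10 excess protease needed over predicted unfolded state with 0 meaning unfolded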
“DEDTIRKVNRSFLEAVQHNDDDTLRRLLDEDAHAQYGDKTVHGKTEVVKMILTFVEQVDSLDYKSITATGDHVDVKVDAKHNGRTLDVRIIMRIENGRFTHVQFDIR” showed a protease stability score of 0.075. In the case of “DEDTIRRQAKEFFKNFRDNDEDSLRTLMDENVEARYGDKTYHGRESVLTALATVLSQIDHLEVENLHVHNGRIEVVMKFVVNGREVRMNVIFHIRNGRIKKINIDPDEQRKLES”, the protease stability score is reported as 1.49. Sequence “DEDTLKHMAREFVKALQTGDEDRLSEMVDENVRIDYGDKTVSGRKKAQEYAHRVRKQVDHIEVREVEVHGNKVEIDAVLVFNGQRLTVTFRIIMRNGKVQHIQLEVTDPDKQRKAEQ” has a protease stability score of 1.26. For “DEDTLKKLFEQVFKYVQKGNTKELKKVIDESVEFQFGDHRYKGVDQYIKLIKEFKDRGVQFRVEEAQQKDDDVTMRTKIRYGNKEVTVKAQARYDGGHAKHFRVELSEEAKKALKTG”, the protease stability score was 0.292. Work on “DEDTLKKMAQKIADAIRKGDEDQMERLADEDARMSYGDTTWHGRQEVKKAVREFRNQFDHLTIKRITVKGEKVKIDAEFTVNGREVSFVVIAHVNNGRLKEVVVHFTDPDTLHEALK” yielded a protease stability score of 0.622. For “DEDTLRKVAETLMKALKTNDSESLKQMMDKDVKMTVGDKKYQGREEAADHLIELAQSVDHLEVRSVDNQGNHASVEFEVQHNGRNDTVHLRFEISNGRVKNVVLHTP”, the protease stability score was 1.99. For “DEDTLRTQEEQFKRNNPDDLKKQFDPNAKIRYGDKEITGREDLKKFIDKLRKRIDHYRVRSINIKGEHVRADVVVVVDGRHVRYKVIRHLDNGKVKSLEVKFTSEEQEKKFKEALD”, the protease stability score was 0.261. For “DEDTNREQVKRFEEAQQENDPDKWMDNLDENARLDVGDTRVHGSKEIMKHFKRLNDKIDHWRVQSFEFHNGRMKLNAVARVNGKRLKMQFQANVHNGKFTELRMDPDAVRKITS”, the protease stability score was 0.413. Sequence “DEDVEDRVRRFLEQVNHNNPQDLSKYMDPNARLDIGDKVLHGREDIHKFWEDLIRESRIEVREMDVKVHNGRVSATVRFVEHENGNPRETVMKITATWSNGRAQFMRFQSDG” has a protease stability score of 0.82. “DEDVERIIKRFLTALTHNDPEQAAQNVDPNAQVRIGDKSVHGKDQLKNRIEEEVKEMRVDIKHMSVDVKGNKASIHLHFVIQTNGKPDEKTAVMEVVVQGDKIHELELHDTK” showed a protease stability score of 0.725. “DEDVKELAEKYWKVVKEGNPHEVKKMVDPNVKFNVGEQHIHGREEVARQVSKENREIRINYQLRDVKVHNGRVDVTADLEEEHNGKPETNKVKAHFVFRNGRVQTLSQTNKK” showed a protease stability score of -0.031. For “DEDVKKLFEDWLRALQTNNPDEVNEMADPNVTVKVGNKVVHGREQLNKDLKEETKHIRVTYHHVDLTVHNGRAKARLDVTVNVNGRPVRFQFNVTVHARNGRVVSMHVQIPHEVLETIKQ”, the protease stability score was 1.57. In the case of “DEDVKRMIEDFIEAEKKNNPRQLKKNADPEAEADVGDTKVHGMDHFAREVKKRMDQMRVSVDYKSITVDGNTIKAKARVSENHNGRPKHNTATLEFRAHNGRIKEIRHHEDK”, the protease stability score is reported as -0.332. With “DEDVKRVMEELVKVMHNNDPNEFMKLLDPNARWTIGDKTYHGRDNLRREVKKHHDQQRVQYKSWHIDVHGERATATAEVRVDHNGQPDTFRLVISAQAHNGRVKRAEYRKDT” the protease stability score was -0.145. Work on “DEDVQDQYRKILEAEKKNNPDHLNELMDPNVKFNVGDHTIHGREQRKEKQDELVKESRYDIKVDRVSVKGNKFVAKFKVTEEHNGRPHTTVLVIVMTVENGHVKRLQVKRDK” yielded a protease stability score of -0.001. Sequence “DEDVQKIAETFWRVLKQGNEDDARRLIDPNARINVGNKNYHGREQIAEIIKKKKEEIRFSIDDVKVRVHNGELTASIDFKVNVNGRPDSIHVEFRMVVHNGKIVQIQMQVDEDWMKELES” has a protease stability score of 0.788. “DEDVVDEFRRAIESNDFDRLVELADENAKADIGNKTVRGRDEMKDLMTSQKRRVDHLQVTSFSIDGDKLTVRYIANIDGHKIDNVVRFVAHNGKLKHMEVRARSEEQQKTLEKLIG” gave a protease stability score of 0.059. Sequence “DEDVVKEWMTDQRNNNEKRLQSLVDPNAKLEYGDKSIHGDEEMHEWAKKLRESVDHWEVKEYDIHNGTAEADVVVQFNGREIRYQFVAVAHNGSVTSIVYRARDEDFERFLDDIFS” has a protease stability score of 0.165. “DEEAAKHVNRMLEKGDEKKIAQHVDKDARAHVGNQELHGREDIIRAVTRFRQQADHMRVDSYEVQGDRIEVTFEVVVNGHKMQLKATIRVDNGRIKHNKIQARSEEQTKQMQKLLD” gave a protease stability score of -0.171. Work on “DEEAAKKMMETWMKAVQKGDEKTVQKVYKPNGRWVHIDEERQGVEVVVKMMQQVKKQGVEFQIRRAKVEGDRVQFVYDLRLGDKTATFTVELQAQGGRVQEVKAEVSEEAKEIVTKG” yielded a protease stability score of 0.14. Sequence “DEEAAKKVKTLVEHGDFQQMARNFDEDARVVIGDRVVHGREQAIEAMRRFDEAVDHQEVKSVTSSGNKVKFNIQAHVDGKTVRMIVVIEMHNGKLKMVRFDATSEDLRRILKRSLG” has a protease stability score of 1.27. “DEEAAKLMRKMQQAVRSNNPEEVQRMMDPNASAKYGDKEVHGREEIATHLVKETRRMHIHYDVEHITVDNGRADVTADVQQEHNGKPERRKYKVHIEVRGDKLVHLRFETRK” gave a protease stability score of 0.06. With “DEEAAKRAEEYLKALRSGNPDDLKKQIDPNASYQIGDKRVHGREQQATLAHNLQHNMRMEWELKDYRVQGNSVTLEIDVVIEHNGRPEKFKADVRVTFHNGKIQEMTVREDK” the protease stability score was 0.051. “DEEAAKRLENILKAEERNDEDSLRRLMDKDAHINVGDRQVHGMDRRRENVQHQSRRSDIQLESINKHENGDTVHVDVVRRYQHNGRPSRERFDAVAQVHNGKMRSMTAQDSQ” gave a protease stability score of -0.44. For “DEEAARKFEHALRVREHGNEHQLQELVDPNARVSIGDKRVKGHERIQHWQETLHHEMRFRMQVDSYEVQGEKVRFNVRVQYDINGQPVDDRMTLVVQFDNGRIKSVEYQIPTEMKRDLKR”, the protease stability score was 0.032. With “DEEADKRITEQLKQEQEGDKDKVKEQIDPNARIKVGDKTIHGMDEYVRMVHRTRREQRRRIRVVSVEVRGNTAKVDADRHIDVNGRPVRYRIEFHVEFHNGKVTDIHVHTDQEQKKKQHG” the protease stability score was 0.655. “DEEAEDLVKELWKAWKHNDPDTWVKQLPPDARISVGNKEVHGREQARHEFERQVERMQVRLKVDSVHNRGNKAHFHVTVDASVNGKPVTFTVEVVITFHNGKAKYIEMRMSEEQFDKFQG” gave a protease stability score of 1.41. “DEEAEHVARELQKAQETGNPKRARHMMDENARIQVGDHRIHGMSRYLEDLRRKQEEIRIEFKRVSHNVNGNRVVINFLAVYEVNGHPVHLRIQLSFEIHNGRAQTMDVNISEQQMRDIER” showed a protease stability score of -0.022. “DEEAEKELRKMFQNENKGNPNEVMKQFDKHARVKVGEKEIRGRHQVHNYVDHVRKEMRRQIDSMSLEVHGNKLIVHITYVADINGHPVRVQVQYIIQFHNGKIKEVKVKIDEDEKRRMDQ” showed a protease stability score of 0.385. Work on “DEEAEKLAREFIKAVQTGDEEELNELMDPNARFRIGNKTFHGMTNAAKEFNDKRREAHIEYHITSIRVSGDHVEVKVEVHVNVNGKPVHNEVTMDFKRHNGRIRDFQVQIDEEDQKKQDK” yielded a protease stability score of 1.29. “DEEAEKRFEELMENRKTGNEHDVSEYADPNVTARIGDHEVRGREQLHDLQRKEKEEMRVDIKDYRLDFNGDTVRVEVHLEDEHNGRPRDRHQSNSFRWQNGKLKELHIRSDK” showed a protease stability score of -0.353. In the case of “DEEAEKVYRKMLHALRTGNEHQLKKLMDPNVHVKVGDKHIHGREDVAQEQRTDRQRWRNDQQLVTFHAEGDQVEFTVEYVIEVNGQPDKDRYKAFFRFDNGKIKEFQVDIDPKELKEQLN”, the protease stability score is reported as 0.096. “DEEAERIAEEFIRAQQTGDKDRLRKLMDPNARANVGDKRYHGMERWAKDVARTMHEQRVEIKDLKISVQGNKADVHIDLVVDHNGQPRRFDMRLDFRFNNGTIKEVSYDDKR” showed a protease stability score of 0.391. With “DEEAERIIERYLEAVKTNDPEQMKEMADPNVKVKVGDKVIHGMEDAVKKVQHRLDEQRVEIKHVTLKVRNGRVNVEADVVVTHNGRPDRSKYHIDMEAHNGSAVYVRITDVS” the protease stability score was 1.38. “DEEAETVLKRWLTALRENDPQQAADLADPHAQFQIGEKTIRGREDLKRFMDEMLHHLRVDFTIDHVKVTGETVVVHFTVEFNVNGRPLRFEVVLVVKAENGKVKQLEQHMDDDQWRQVKS” showed a protease stability score of 0.358. In the case of “DEEAFKRFKEMVDAIRTGDRDRVRRLADPNARFEVGDKEVRGMDDYARKIKRKRDEIRMRYQIDSYSKSGDKVVARVQVEVEHNGQPSSHVYRAEFKNSNGRIVELNVKTDS”, the protease stability score is reported as 0.275. Sequence “DEEAFKVMEKLEEDIHTGSEENIEKLFDPNARLRVGDHVVDGRHNIAKHVRDVRESARLEFSVRTYDMQGEKVRLDVTWRREHNGQPESATATVVAEIHNGRIVSVTVDERK” has a protease stability score of 0.801. “DEEAHELWKKWQEAFKTGDPEQLHEMADKDARLRIGNKEIHGREKAVKQLVDERKEMHIDYRIRSYKFEGNRLTFTAHANARVNGQPYRYTVKMQFSFSNGRLKELQIRIPEEVMQELRN” gave a protease stability score of 0.791. With “DEEAHEVIDTLRKAQETGDRNTARSLIDPNATFQVGDNVIRGREEYVRDLVRHRDQIRVELKHLSQTFSNGKMRMTQEAVYDINGRPDRVEFTASATIHNGRVKHMTVQVPPEQVKRLER” the protease stability score was -0.181. With “DEEAHKLATKWLRAVQTGDPDTVKELVDPNVRAVYGDQEITGRERLADEIKKTRDHSRVELESVRVTVHGDKVRAQADVRVNTNGKPERNTVDVTIVIHNGRIKRMHMQKSQ” the protease stability score was 0.7. “DEEAHKLMEEMMRAWKHGDSQRVADLVDPNARVKIGDKEVRGHEQIKELVHTLKTEMRIEYQSISAENHGNHVEVDARLSVESNGKPEQVDFKLRLVVQNGRIREISADYKP” showed a protease stability score of -0.035. Sequence “DEEAHKVAESFIKAYSNGDEDKLKKNVDPNARIQIGDKYIHGMDTFVKEQRKRREQSRYHMSITHVDVQGNEVDVRFKAESEHDGQPHTNRMSVNFTFHNGNIKNVDIQYEP” has a protease stability score of -0.307. Work on “DEEAIDLANRFLEARKTGDPDKAREQADPNATFKYGDREVHGMDEMARQIEHEHKESRVNIDVDRVTDTGDTAKFDMSVRENHNGQPHTVKMDMVVKAHNGHIKHLSYTLNG” yielded a protease stability score of -0.514. Work on “DEEAIHRMEEFIKNVNNNNEEKLKELADPNVDAHIGDKVIHGMERIVTELVKELENIDIEYKDMRVEDRGDNIHIQIRAIFHHNGKPQEHTQIIDVQVENGKVKKMRRSSDS” yielded a protease stability score of 0.185. For “DEEAIKQAKKLLDALRTGDEETLKEMIDPNARIHVGDKEVHGREEAAEQWQRRQEEQSMDWKVKSVENTNGRAEFRATATRRHNGQPDHFDFTWRVQAHNGRVKHMQVETRG”, the protease stability score was -0.262. With “DEEAIKVQEEIQKQEEKGNEENVEKNMDENVKLRVGDKDLEGRSEVSKDVRRRKDEMRFQYLHMSYHSNGETIRVNIEMSSNHNGRPDTRRFDATFHIHNGKLTEYSKESSQ” the protease stability score was 0.161. Work on “DEEAKDNFETAFKAEMTGDPQKYKKNVDPNAKVTIGDKTVRGREEVAKQLQHRRKESHVEFTDMKVKVQGDKVVVKLKAVDNENGRPDTAHYDIQFHASDGRITDLKVNKTK” yielded a protease stability score of -0.049. Sequence “DEEAKEVLERWHTAIKHGDPNLAKEMADKDVRINVGDKSFSGMEQNAKDMHRERNELEYEILSVRFEVHGDKVKVEFHATRNNNGNPDTKKFDLTATASNGKATRVTLQSSG” has a protease stability score of -0.538. “DEEAKKLADEWADAVNKNDEKSLKDLVDPNAKFRVGNQEYHGREQLEEFLSKWMSEWRHSLEDWRVNVQGDTVVLTAKLNVDVNGKPARVDAHVEFVVHNGRIKSQSEQFDEQRLRDNKS” gave a protease stability score of 0.521. Work on “DEEALEILRDAWEALRTGDHEKLRELFDKNANVRIGEKRFEGSDEIMRDWLTTIRNIRFHIHDIKFTVNGDKAVVRVNVNFEHNGKPQSDVYRMSAEADNGRIKSADADRDK” yielded a protease stability score of 0.391.
